In PMC11077774, “Molecular mechanism for recognition of the cargo adapter Rab6^GTP by the dynein adapter BicD2” (Life Science Alliance, 2024):

Key:
Assay in all cases: pull-down; GST-tagged Rab6^GTP (WT = Q72L, or mutant) held on glutathione Sepharose columns, 1 mM GTP and 2 mM MgCl2 added for 30 min; purified BicD2-CTD added and incubated 30 min; washed, eluted with glutathione; SDS-PAGE (16%), Coomassie, band intensities quantified with ImageJ, ratio of bound BicD2-CTD/Rab6^GTP normalised to WT = 1; three experiments
Details in all cases: both partners purified
[1] = target: T1, GST-tagged Rab6^GTP (Rab6a/Q72L) S52A mutant (human, UniProt P20340 1-208, Q72L | S52A)
T1 construct: Rab6a, human, full length, Q72L background with S52A; Loaded with 1 mM GTP and 2 mM MgCl2 on the column; also called phosphonegative mutation S52A; source: E. coli BL20(DE3)-RIL, purified by glutathione Sepharose, washed but not eluted; not shown: GST, N-terminal, kept
T1 sequence (P20340 whole entry S52A/Q72L): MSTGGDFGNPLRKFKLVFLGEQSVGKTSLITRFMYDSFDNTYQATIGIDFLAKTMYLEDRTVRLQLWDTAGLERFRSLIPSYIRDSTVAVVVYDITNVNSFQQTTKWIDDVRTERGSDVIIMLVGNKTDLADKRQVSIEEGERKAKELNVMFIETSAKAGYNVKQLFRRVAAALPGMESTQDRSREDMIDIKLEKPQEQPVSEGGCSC

[2] = target: T2, GST-tagged Rab6^GTP (Rab6a/Q72L) K53A mutant (human, UniProt P20340 1-208, Q72L | K53A)
T2 construct: Rab6a, human, full length, Q72L background with K53A; Loaded with 1 mM GTP and 2 mM MgCl2 on the column; source: E. coli BL20(DE3)-RIL, purified by glutathione Sepharose, washed but not eluted; not shown: GST, N-terminal, kept
T2 sequence (P20340 whole entry K53A/Q72L): as the sequence (P20340 whole entry S52A/Q72L) above, with A52S, K53A counted along it

[3] = target: T3, GST-tagged Rab6^GTP (Rab6a/Q72L) Q65A mutant (human, UniProt P20340 1-208, Q72L | Q65A)
T3 construct: Rab6a, human, full length, Q72L background with Q65A; Loaded with 1 mM GTP and 2 mM MgCl2 on the column; source: E. coli BL20(DE3)-RIL, purified by glutathione Sepharose, washed but not eluted; not shown: GST, N-terminal, kept
T3 sequence (P20340 whole entry Q65A/Q72L): as the sequence (P20340 whole entry S52A/Q72L) above, with A52S, Q65A counted along it

[4] = target: T4, full-length GTP-bound Rab6a/Q72L with N-terminal GST tag (human, UniProt P20340 1-208, Q72L)
T4 construct: pGEX6P1 vector, PreScission site after GST; Construct described in Gibson et al, 2023; also called Rab6^GTP WT; Rab6^GTP; source: E. coli BL20(DE3)-RIL, purified by glutathione Sepharose, washed but not eluted; not shown: GST, N-terminal, kept
T4 sequence (P20340 whole entry Q72L): as the sequence (P20340 whole entry S52A/Q72L) above, with A52S counted along it

Measured: binding result

B1: BicD2-CTD (C-terminal cargo-binding domain of human Bicaudal D2, residues 715-804) (domain or fragment, UniProt Q8TD16 715-804, looked up)
chain: YENEKAMVTETMMKLRNELKALKEDAATFSSLRAMFATRCDEYITQLDEMQRQLAAAEDEKKTLNSLLRMAIQQKLALTQRLELLELDHE
notes: Construct described in Gibson et al, 2022; also called BicD2-CTD WT
binds: all assays above
